Article PMC7911190, “One Step Histological Detection and Staining of the PTEN Tumor Suppressor Protein by a Single Strand DNA”

How the values were obtained:
[1] = molecular target: T1, PTEN (endogenous, human tissue sections) (human, UniProt P60484 1-403); assay: histochemistry (PS2.M peroxidase, DAB); hemin, K+; endometrium and colon; same scoring as MAb 6H2 in 60 samples; Fixed tissue sections; 5 uM aptamer in TKT (25 mM Tris-HCl pH 8, 20 mM KCl, 200 mM NaCl, 0.05% Triton X-100, 0.1% DMSO), 100 uM hemin for DNAzyme constructs, BSA; 3 h at room temperature or overnight at 4 C (25 C overnight also stated); details: protein: native; 5' PS2.M G-quadruplex; stem linker removed
[2] = molecular target: T1, PTEN (endogenous, human tissue sections); assay: histochemistry (avidin-biotin peroxidase); normal endometrium; TKT buffer; Fixed tissue sections; 5 uM aptamer in TKT (25 mM Tris-HCl pH 8, 20 mM KCl, 200 mM NaCl, 0.05% Triton X-100, 0.1% DMSO), 100 uM hemin for DNAzyme constructs, BSA; 3 h at room temperature or overnight at 4 C (25 C overnight also stated); details: protein: native; label: 5' biotin; stem-loop; 13 nt reverse-complementary primer regions form the stem

T1 sequence (P60484 whole entry): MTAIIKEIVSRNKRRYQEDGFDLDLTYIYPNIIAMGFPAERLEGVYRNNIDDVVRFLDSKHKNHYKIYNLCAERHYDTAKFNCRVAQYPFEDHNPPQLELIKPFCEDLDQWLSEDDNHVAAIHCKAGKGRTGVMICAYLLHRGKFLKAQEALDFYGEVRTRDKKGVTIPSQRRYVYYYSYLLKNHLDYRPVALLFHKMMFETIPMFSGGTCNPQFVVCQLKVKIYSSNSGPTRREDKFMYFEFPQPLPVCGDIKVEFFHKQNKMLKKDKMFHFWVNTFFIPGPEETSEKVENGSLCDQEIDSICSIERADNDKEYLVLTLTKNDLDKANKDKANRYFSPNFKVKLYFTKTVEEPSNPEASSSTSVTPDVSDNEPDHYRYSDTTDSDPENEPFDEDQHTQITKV

| Binder | binding result [1] | binding result [2] |
| --- | --- | --- |
| Dual aptazyme PTENz7-70 (structured_DNA) DNA: GTGGGTAGGGCGGGTTGGCGGTCATACCGCGCCTATCGAACTCGCCACTCGCGTGCAGCTCTGTGTAGGT | binds | – |
| PTENz7-87-biotin (structured_DNA) DNA: CGGAATTCCGAGCGTGGGCGTGGTCATACCGCGCCTATCGAACTCGCCACTCGCGTGCAGCTCTGTGTAGGTACGCCCACGCTCGAG | – | binds |
